Test results reported in paper PMC8531034, “Structural insights into RNA polymerase III-mediated transcription termination through trapping poly-deoxythymidine” (Nature Communications, 2021).

T1: RPC1, subunit of human RNA polymerase III (human, UniProt O14802 1-1390)
T1 construct: RPC1, largest subunit of human RNA polymerase III (catalytic core); Subunit of the 17-subunit Pol III complex; source: Expi293F cells, transiently expressed, purified to homogeneity as part of the recombinant human Pol III complex
T1 sequence: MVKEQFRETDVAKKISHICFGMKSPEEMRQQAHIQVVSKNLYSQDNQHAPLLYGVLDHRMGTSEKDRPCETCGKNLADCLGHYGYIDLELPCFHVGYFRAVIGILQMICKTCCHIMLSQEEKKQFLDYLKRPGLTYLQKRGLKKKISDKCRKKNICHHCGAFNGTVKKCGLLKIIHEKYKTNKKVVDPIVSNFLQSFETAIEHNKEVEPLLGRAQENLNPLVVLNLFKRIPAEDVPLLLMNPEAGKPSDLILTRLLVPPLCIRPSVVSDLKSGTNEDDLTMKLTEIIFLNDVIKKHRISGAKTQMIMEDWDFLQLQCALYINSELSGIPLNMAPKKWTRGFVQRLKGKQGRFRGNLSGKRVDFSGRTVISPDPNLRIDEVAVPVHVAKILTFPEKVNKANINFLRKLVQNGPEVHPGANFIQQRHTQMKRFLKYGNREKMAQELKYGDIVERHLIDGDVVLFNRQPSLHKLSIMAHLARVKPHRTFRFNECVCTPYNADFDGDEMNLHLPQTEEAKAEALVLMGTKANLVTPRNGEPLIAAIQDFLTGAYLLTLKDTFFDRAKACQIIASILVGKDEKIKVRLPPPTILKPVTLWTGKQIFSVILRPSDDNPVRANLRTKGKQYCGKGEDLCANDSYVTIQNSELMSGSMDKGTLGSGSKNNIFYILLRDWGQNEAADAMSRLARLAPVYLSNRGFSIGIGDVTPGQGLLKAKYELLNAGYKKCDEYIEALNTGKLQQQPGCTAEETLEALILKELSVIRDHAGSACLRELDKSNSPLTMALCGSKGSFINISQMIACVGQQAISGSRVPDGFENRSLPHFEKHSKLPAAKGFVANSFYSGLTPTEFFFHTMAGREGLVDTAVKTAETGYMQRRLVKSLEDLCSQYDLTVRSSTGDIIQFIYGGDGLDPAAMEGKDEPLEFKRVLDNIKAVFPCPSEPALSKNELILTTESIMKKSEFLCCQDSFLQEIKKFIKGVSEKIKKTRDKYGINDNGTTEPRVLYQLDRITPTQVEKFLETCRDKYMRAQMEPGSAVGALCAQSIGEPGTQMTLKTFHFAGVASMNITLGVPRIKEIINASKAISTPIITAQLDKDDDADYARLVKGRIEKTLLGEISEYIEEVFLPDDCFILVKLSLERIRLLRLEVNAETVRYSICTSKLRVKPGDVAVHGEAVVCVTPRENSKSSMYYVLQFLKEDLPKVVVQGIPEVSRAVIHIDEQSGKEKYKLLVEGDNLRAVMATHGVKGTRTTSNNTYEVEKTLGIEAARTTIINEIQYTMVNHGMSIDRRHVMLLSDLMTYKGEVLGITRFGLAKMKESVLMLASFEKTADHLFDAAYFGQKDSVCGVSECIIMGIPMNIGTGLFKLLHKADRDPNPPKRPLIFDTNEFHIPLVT

B1: RPC2, subunit of human RNA polymerase III (natural protein)
chain: MDVLAEEFGNLTPEQLAAPIPTVEEKWRLLPAFLKVKGLVKQHIDSFNYFINVEIKKIMKANEKVTSDADPMWYLKYLNIYVGLPDVEESFNVTRPVSPHECRLRDMTYSAPITVDIEYTRGSQRIIRNALPIGRMPIMLRSSNCVLTGKTPAEFAKLNECPLDPGGYFIVKGVEKVILIQEQLSKNRIIVEADRKGAVGASVTSSTHEKKSRTNMAVKQGRFYLRHNTLSEDIPIVIIFKAMGVESDQEIVQMIGTEEHVMAAFGPSLEECQKAQIFTQMQALKYIGNKVRRQRMWGGGPKKTKIEEARELLASTILTHVPVKEFNFRAKCIYTAVMVRRVILAQGDNKVDDRDYYGNKRLELAGQLLSLLFEDLFKKFNSEMKKIADQVIPKQRAAQFDVVKHMRQDQITNGMVNAISTGNWSLKRFKMDRQGVTQVLSRLSYISALGMMTRISSQFEKTRKVSGPRSLQPSQWGMLCPSDTPEGEACGLVKNLALMTHITTDMEDGPIVKLASNLGVEDVNLLCGEELSYPNVFLVFLNGNILGVIRDHKKLVNTFRLMRRAGYINEFVSISTNLTDRCVYISSDGGRLCRPYIIVKKQKPAVTNKHMEELAQGYRNFEDFLHESLVEYLDVNEENDCNIALYEHTINKDTTHLEIEPFTLLGVCAGLIPYPHHNQSPRNTYQCAMGKQAMGTIGYNQRNRIDTLMYLLAYPQKPMVKTKTIELIEFEKLPAGQNATVAVMSYSGYDIEDALVLNKASLDRGFGRCLVYKNAKCTLKRYTNQTFDKVMGPMLDAATRKPIWRHEILDADGICSPGEKVENKQVLVNKSMPTVTQIPLEGSNVPQQPQYKDVPITYKGATDSYIEKVMISSNAEDAFLIKMLLRQTRRPEIGDKFSSRHGQKGVCGLIVPQEDMPFCDSGICPDIIMNPHGFPSRMTVGKLIELLAGKAGVLDGRFHYGTAFGGSKVKDVCEDLVRHGYNYLGKDYVTSGITGEPLEAYIYFGPVYYQKLKHMVLDKMHARARGPRAVLTRQPTEGRSRDGGLRLGEMERDCLIGYGASMLLLERLMISSDAFEVDVCGQCGLLGYSGWCHYCKSSCHVSSLRIPYACKLLFQELQSMNIIPRLKLSKYNE
notes: RPC2, second largest subunit of human RNA polymerase III (catalytic core; lobe, protrusion, fork loops 1 and 2); Subunit of the 17-subunit Pol III complex; source: Expi293F cells, transiently expressed, purified to homogeneity as part of the recombinant human Pol III complex

How the values were obtained:
[1] = target: T1, RPC1, subunit of human RNA polymerase …; assay: cryo-EM structure; recombinant human Pol III (17 subunits) assembled with a DNA-RNA scaffold with seven dT in the non-template strand, 1:2 molar ratio, dialysed in 20 mM HEPES pH 8.0, 150 mM NaCl, 2 mM MgCl2, 2 mM DTT; 3D classification gave two states, PTC (3.6 Å, core 3.3 Å) and EC (3.6 Å); details: both partners purified
[2] = target: B1; assay: as above; details: both partners purified

| binding result [1] | binding result [2] | Binder |
| --- | --- | --- |
| binds |  | B1 |
|  | binds | RPC4-RPC5 dimer module of human RNA polymerase III (complex, RPC4 of human RNA polymerase III (dimer module); RPC5 of human RNA polymerase III (dimer module; holds the hotspot); the mammal-specific C-terminal domain was not seen in the PTC map; Named throughout as a heterodimer; Part of the 17-subunit Pol III complex; also called RPC4-5; C53-C37 (yeast equivalent); source: Expi293F cells, transiently expressed, purified to homogeneity as part of the …) chain 1: MSEGNAAGEPSTPGGPRPLLTGARGLIGRRPAPPLTPGRLPSIRSRDLTLGGVKKKTFTPNIISRKIKEEPKEEVTVKKEKRERDRDRQREGHGRGRGRPEVIQSHSIFEQGPAEMMKKKGNWDKTVDVSDMGPSHIINIKKEKRETDEETKQILRMLEKDDFLDDPGLRNDTRNMPVQLPLAHSGWLFKEENDEPDVKPWLAGPKEEDMEVDIPAVKVKEEPRDEEEEAKMKAPPKAARKTPGLPKDVSVAELLRELSLTKEEELLFLQLPDTLPGQPPTQDIKPIKTEVQGEDGQVVLIKQEKDREAKLAENACTLADLTEGQVGKLLIRKSGRVQLLLGKVTLDVTMGTACSFLQELVSVGLGDSRTGEMTVLGHVKHKLVCSPDFESLLDHKHR chain 2: MANEEDDPVVQEIDVYLAKSLAEKLYLFQYPVRPASMTYDDIPHLSAKIKPKQQKVELEMAIDTLNPNYCRSKGEQIALNVDGACADETSTYSSKLMDKQTFCSSQTTSNTSRYAAALYRQGELHLTPLHGILQLRPSFSYLDKADAKHREREAANEAGDSSQDEAEDDVKQITVRFSRPESEQARQRRVQSYEFLQKKHAEEPWVHLHYYGLRDSRSEHERQYLLCPGSSGVENTELVKSPSEYLMMLMPPSQEEEKDKPVAPSNVLSMAQLRTLPLADQIKILMKNVKVMPFANLMSLLGPSIDSVAVLRGIQKVAMLVQGNWVVKSDILYPKDSSSPHSGVPAEVLCRGRDFVMWKFTQSRWVVRKEVATVTKLCAEDVKDFLEHMAVVRINKGWEFILPYDGEFIKKHPDVVQRQHMLWTGIQAKLEKVYNLVKETMPKKPDAQSGPAGLVCGDQRIQVAKTKAQQNHALLERELQRRKEQLRVPAVPPGVRIKEEPVSEEGEEDEEQEAEEEPMDTSPSGLHSKLANGLPLGRAAGTDSFNGHPPQGCASTPVARELKAFVEATFQRQFVLTLSELKRLFNLHLASLPPGHTLFSGISDRMLQDTVLAAGCKQILVPFPPQTAASPDEQKVFALWESGDMSDQHRQVLLEIFSKNYRVRRNMIQSRLTQECGEDLSKQEVDKVLKDCCVSYGGMWYLKGTVQS |
|  | binds | RPC10, subunit of human RNA polymerase III (natural protein, RPC10 of human RNA polymerase III, with N-terminal ribbon domain (N-ribbon) and C-terminal ribbon domain (C-ribbon); Subunit of the 17-subunit Pol III complex; also called C11 (yeast equivalent); source: Expi293F cells, transiently expressed, purified to homogeneity as part of the recombinant human Pol III complex) not shown |
